The record followed here is patent US5767250, “Complexes comprising truncated CMV gH polypeptides and escort proteins” (Chiron Corporation, dated 1998).

One may read the Kd as a measure of binding affinity in units of concentration. A high value points to lower affinity.

The target of this assay is basic FGF (human, UniProt P09038, radioiodinated (125I) in the soluble binding assay and the radioreceptor assay). The assay is described as follows: soluble binding assay: EC-FGF receptor on concanavalin A coated wells, 125I-bFGF with increasing bFGF, Scatchard analysis.

B1: EC-FGF receptor, soluble extracellular domain of the human FGF receptor flg5 expressed in a baculovirus system (receptor)
chain: RPSPTLPEQAQPWGAPVEVESFLVHPGDLLQLRCRLRDDVQSINWLRDGVQLAESNRTRITGEEVEVQDSVPADSGLYACVTSSPSGSDTTYFSVNVSDALPSSEDDDDDDDSSSEEKETDNTKPNPVAPYWTSPEKMEKKLHAVPAAKTVKFKCPSSGTPNPTLRWLKNGKEFKPDHRIGGYKVRYATWSIIMDSVVPSDKGNYTCIVENEYGSINHTYQLDVVERSPHRPILQAGLPANKTVALGSNVEFMCKVYSDPQPHIQWLKHIEVNGSKIGPDNLPYVQILKTAGVNTTDKEMEVLHLRNVSFEDAGEYTCLAGNSIGLSHHSAWLTVLEALEERPAVMTSPLYLE
B1 showed a Kd of less than 5 nM.
